Assay in all cases: ELISA-type titration, A450 against antibody concentration; protocol not described in the text
Background: In an ELISA, binding on a coated surface is turned into a signal by an enzyme label.

One experiment has as its target T1, Baboon EL-C2 tag (baboon, UniProt Q9Y5X9 21-500 (human entry), limits assumed).
T1 construct: used as heparin extract of transfected HEK293F cells; also called baboon EL heparin extract
T1 chain: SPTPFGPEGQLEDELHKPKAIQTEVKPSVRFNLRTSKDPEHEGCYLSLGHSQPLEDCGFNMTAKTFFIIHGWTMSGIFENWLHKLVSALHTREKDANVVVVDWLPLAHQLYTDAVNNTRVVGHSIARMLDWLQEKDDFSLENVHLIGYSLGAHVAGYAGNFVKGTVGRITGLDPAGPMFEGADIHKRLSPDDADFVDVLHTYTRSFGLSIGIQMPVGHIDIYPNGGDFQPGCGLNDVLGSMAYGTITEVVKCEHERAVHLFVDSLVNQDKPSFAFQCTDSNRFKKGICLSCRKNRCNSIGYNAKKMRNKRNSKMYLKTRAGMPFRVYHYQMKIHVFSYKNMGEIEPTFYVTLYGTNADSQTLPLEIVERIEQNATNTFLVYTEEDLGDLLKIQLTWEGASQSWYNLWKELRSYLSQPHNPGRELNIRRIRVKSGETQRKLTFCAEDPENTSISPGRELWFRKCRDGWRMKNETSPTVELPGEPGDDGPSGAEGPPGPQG

Experiment [1] deals with T2, cynomolgus monkey EL-C2 tag (cynomolgus monkey, UniProt Q9Y5X9 21-500 (human entry), limits assumed).
T2 construct: used as heparin extract of transfected HEK293F cells; also called cynomolgus EL
T2 chain: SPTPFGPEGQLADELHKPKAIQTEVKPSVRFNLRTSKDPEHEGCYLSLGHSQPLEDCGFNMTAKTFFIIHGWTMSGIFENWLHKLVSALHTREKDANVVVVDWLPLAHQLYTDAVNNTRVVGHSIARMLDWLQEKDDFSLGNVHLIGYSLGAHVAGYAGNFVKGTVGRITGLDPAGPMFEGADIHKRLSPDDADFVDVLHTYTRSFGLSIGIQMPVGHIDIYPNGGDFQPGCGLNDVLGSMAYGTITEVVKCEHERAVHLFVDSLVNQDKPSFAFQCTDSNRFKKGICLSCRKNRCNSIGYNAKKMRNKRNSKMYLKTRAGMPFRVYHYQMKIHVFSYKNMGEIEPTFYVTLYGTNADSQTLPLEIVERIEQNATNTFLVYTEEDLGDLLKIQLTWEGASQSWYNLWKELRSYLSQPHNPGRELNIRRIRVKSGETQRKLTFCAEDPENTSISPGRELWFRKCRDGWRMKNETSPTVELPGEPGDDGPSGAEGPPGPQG

The next experiment deals with T3, mouse EL-C2 tag (mouse, UniProt Q9WVG5 21-500).
T3 construct: used as heparin extract of transfected HEK293F cells
T3 sequence: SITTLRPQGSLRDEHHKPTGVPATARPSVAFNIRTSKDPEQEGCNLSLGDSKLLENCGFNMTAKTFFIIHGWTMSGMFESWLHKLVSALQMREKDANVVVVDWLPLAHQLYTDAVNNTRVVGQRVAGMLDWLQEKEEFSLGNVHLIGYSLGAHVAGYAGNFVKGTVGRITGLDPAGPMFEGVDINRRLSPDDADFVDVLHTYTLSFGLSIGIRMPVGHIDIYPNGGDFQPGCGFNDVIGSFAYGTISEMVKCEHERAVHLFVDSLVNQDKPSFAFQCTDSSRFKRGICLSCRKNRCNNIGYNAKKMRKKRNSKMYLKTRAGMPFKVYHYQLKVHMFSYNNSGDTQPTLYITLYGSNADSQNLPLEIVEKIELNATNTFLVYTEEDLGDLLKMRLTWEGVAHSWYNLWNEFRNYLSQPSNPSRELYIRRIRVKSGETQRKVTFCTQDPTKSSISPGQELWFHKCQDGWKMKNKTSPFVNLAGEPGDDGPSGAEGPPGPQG

For experiment [2], the target named is T4, human EL[331-459]-mouse EL-C2 tag (human/mouse chimera, UniProt Q9WVG5 21-500 (mouse entry)).
T4 construct: used as heparin extract of transfected HEK293F cells; also called human-mouse chimera EL; Human-Mouse chimeric EL
T4 chain: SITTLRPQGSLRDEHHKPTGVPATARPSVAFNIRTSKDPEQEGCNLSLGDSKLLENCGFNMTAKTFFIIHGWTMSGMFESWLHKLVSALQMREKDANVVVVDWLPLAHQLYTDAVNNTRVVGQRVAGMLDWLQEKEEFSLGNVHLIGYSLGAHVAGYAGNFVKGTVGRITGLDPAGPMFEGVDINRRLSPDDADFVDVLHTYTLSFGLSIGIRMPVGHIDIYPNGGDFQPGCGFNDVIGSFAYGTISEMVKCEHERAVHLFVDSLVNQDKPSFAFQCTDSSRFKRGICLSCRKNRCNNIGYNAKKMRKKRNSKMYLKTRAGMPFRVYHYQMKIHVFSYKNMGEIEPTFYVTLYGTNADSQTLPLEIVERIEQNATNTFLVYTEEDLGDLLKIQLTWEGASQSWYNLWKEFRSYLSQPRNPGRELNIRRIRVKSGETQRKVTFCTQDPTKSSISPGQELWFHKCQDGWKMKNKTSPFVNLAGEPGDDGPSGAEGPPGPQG

A further experiment addresses T5, rabbit EL-C2 tag (rabbit).
T5 construct: used as cell lysate or heparin extract; also called rabbit EL lysate; rabbit EL enzyme solution
T5 chain: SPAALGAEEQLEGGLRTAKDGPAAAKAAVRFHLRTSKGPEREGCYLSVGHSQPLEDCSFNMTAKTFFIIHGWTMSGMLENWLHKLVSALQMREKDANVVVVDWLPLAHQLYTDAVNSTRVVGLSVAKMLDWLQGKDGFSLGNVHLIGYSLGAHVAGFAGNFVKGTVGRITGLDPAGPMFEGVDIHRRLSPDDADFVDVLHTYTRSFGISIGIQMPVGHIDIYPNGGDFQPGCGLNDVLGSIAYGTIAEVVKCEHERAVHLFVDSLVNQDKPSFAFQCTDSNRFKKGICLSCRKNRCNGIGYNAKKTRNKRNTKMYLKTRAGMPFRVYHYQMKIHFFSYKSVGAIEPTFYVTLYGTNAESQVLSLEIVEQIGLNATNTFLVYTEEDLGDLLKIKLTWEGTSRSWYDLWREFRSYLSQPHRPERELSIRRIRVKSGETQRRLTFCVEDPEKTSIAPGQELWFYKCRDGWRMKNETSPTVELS

B1: 47B2 antibody (antibody, IgG2a, V domains shown)
VH: QVALKESGPGILQPSQTLSLTCSFSGFSLSTSGMGVGWIRQPSGKGLEWLAHIWWHGNKYYSTGLKSRLTISKDTSNNQVFLKIASVDTADTATYYCARISAGYPLDYWGQGTSVTVSS
VL: DIQMTQSPSSLSASLGGKVTITCKASQDINKYIVWYQHKPGKGPRLLIHYTSTLQPGFPSRFSGSGSGRDYSLSITNLEPEDIATYYCLQYDNLLWTFGGGTKLEIK
Take B1: the “EC50 (read off the curve)” value is about 10 ng/mL in the experiment with Baboon EL-C2 tag, about 6 ng/mL in experiment [1], about 10 ng/mL in experiment [2] and about 7 ng/mL in the experiment with rabbit EL-C2 tag. Besides, the binding result with mouse EL-C2 tag is “binds”.

Broadly, the EC50 (read off the curve) is the concentration needed to bring the measured effect to its halfway point.

Source of the values: patent US20150025225A1 (SHIONOGI, published 2015).
